Data taken from article PMC8113581 (Nature Communications, 2021).

Target: T1, SARS-CoV-2 spike S1 domain (D614G) (SARS-CoV-2, Wuhan-Hu-1 background with …, UniProt A0A6H1PJZ3, strain)
T1 construct: also called D614G S1 variant; source: bought: Sino Biological
Assay: SPR
Conditions: both partners purified

B1: P4A1 (antibody, V domains shown)
VH: EVQLVESGGGLIQPGGSLRLSCAASGFIVSSNYMSWVRQAPGKGLEWVSIIYSGGSTFYADSVKGRFTISRDNSKNTLYLQMNSLRVEDTAVYYCARDLQELGSLDYWGQGTLVTVSS
VL: DIQMTQSPSSVSASVGDRVTITCRASQGISSWLAWYQQKPGKAPKLLIYAASSLQSGVPSRFSGSGSGTDFTLTISSLQPEDFATYYCQEANSFPYTFGQGTKLEIK
notes: also called P4A1 (IgG1); IgG1 form P4A1
binding result: binds
